Tests used:
[1] = target: T1, mjCgi121;mjBud32;mjKae1;pfPcc1 (Methanocaldococcus jannaschii;Methanocaldococcus jannaschii;Methanocaldococcus jannaschii;Pyrococcus furiosus) (UniProt Q57646+Q58530+Q58530+Q9V1Z9); experiment: fluorescence polarization; settings: 20 mM HEPES pH 7.5, 100 mM NaCl, 2 mM DTT; filter binding 50 nM 32P-tRNA, 1 h, room temperature; FP 50 nM 647-CCA; NMR 25 C with 10% D2O
T1 sequence 1: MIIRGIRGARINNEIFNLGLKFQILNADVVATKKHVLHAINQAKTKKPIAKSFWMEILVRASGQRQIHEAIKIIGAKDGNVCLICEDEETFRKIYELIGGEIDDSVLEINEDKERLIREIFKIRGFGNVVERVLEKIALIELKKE
T1 sequence 2: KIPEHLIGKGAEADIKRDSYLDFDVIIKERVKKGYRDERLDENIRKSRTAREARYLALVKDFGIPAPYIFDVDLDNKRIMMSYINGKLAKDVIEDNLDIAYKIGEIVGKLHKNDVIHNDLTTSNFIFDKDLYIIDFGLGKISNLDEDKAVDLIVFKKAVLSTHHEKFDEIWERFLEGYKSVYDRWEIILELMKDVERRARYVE
T1 sequence 3: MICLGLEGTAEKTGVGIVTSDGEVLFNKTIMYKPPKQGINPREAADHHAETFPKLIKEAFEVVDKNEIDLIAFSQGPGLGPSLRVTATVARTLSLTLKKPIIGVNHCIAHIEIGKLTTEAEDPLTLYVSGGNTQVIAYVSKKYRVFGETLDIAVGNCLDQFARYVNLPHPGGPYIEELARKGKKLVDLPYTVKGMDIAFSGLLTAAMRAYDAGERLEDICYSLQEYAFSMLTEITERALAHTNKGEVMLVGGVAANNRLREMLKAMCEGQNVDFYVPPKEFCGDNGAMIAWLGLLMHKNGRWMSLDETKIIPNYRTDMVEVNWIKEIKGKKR
T1 sequence 4: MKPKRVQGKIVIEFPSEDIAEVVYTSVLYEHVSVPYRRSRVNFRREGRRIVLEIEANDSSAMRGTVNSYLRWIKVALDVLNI

[2] = target: mjCgi121;mjBud32 R60E (Methanocaldococcus jannaschii;Methanocaldococcus jannaschii) (UniProt Q57646); experiment: competition; settings: displacement of 647-CCA (FP), 0.8 uM protein; 20 mM HEPES pH 7.5, 100 mM NaCl, 2 mM DTT; filter binding 50 nM 32P-tRNA, 1 h, room temperature; FP 50 nM 647-CCA; NMR 25 C with 10% D2O
[3] = target: mjCgi121;mjBud32 E152R (Methanocaldococcus jannaschii;Methanocaldococcus jannaschii) (UniProt Q57646); experiment: competition; settings: displacement of 647-CCA (FP), 0.8 uM protein; 20 mM HEPES pH 7.5, 100 mM NaCl, 2 mM DTT; filter binding 50 nM 32P-tRNA, 1 h, room temperature; FP 50 nM 647-CCA; NMR 25 C with 10% D2O
[4] = target: T2, mjCgi121;mjBud32 (Methanocaldococcus jannaschii;Methanocaldococcus jannaschii) (UniProt Q57646+Q58530); experiment: competition; settings: displacement of 647-CCA (FP), 0.8 uM protein; 20 mM HEPES pH 7.5, 100 mM NaCl, 2 mM DTT; filter binding 50 nM 32P-tRNA, 1 h, room temperature; FP 50 nM 647-CCA; NMR 25 C with 10% D2O
T2 sequence 1: T1 sequence 1
T2 sequence 2: T1 sequence 2

[5] = target: T3, mjCgi121 (Methanocaldococcus jannaschii) (UniProt Q57646); experiment: competition; settings: displacement of 647-CCA (FP); 20 mM HEPES pH 7.5, 100 mM NaCl, 2 mM DTT; filter binding 50 nM 32P-tRNA, 1 h, room temperature; FP 50 nM 647-CCA; NMR 25 C with 10% D2O
T3 sequence: T1 sequence 1

CCGCCA [647-CCA]
Kd [1]: 263 nM

mjtRNALysUUU
IC50 [2]: 7600 nM
IC50 [3]: 600 nM
IC50 [4]: 1200 nM

mjtRNAValCAC
binding signal (fold less efficient than mjtRNALys) [5]: 7.3

Source: article PMC7718258
